In patent US20250320312A1 (OXITOPE PHARMA B V, published 2025) one finds OD450 data, which are given here for 24 molecules.

Residue numbers refer to the chain shown, from its start.

B1: PcOxP_DB04_D05 (scFv, V domains shown)
VH: EVQLLESGGGLVQPGGSLRLSCAASGFTFSDYYMEWVRQAPGKGLEWVAASRNVANDYTTEYADSVKGRFTISRDNSKNTLYLQMNSLRAEDTAVYYCARDYYGSSYWYFDVWGQGTLVTVSS
VL: DIVMTQSPDSLAVSLGERATINCTASTSLYSSKHKVHYLAWYQQKPGQPPKLLIYGASNRYIGVPDRFSGSGSGTDFTLTISSLQAEDVAVYYCAQFYSYPLTFGGGTKVEIK
notes: scFv in periplasmic extract
B2: PcOxP_DB04_G08 (scFv, V domains shown)
VH: B1 VH with F29G, Y32F, V54K
VL: B1 VL with T27E, I62Q, S99W
notes: scFv in periplasmic extract
B3: PcOxP_DB04_E05 (scFv, V domains shown)
VH: B1 VH with F27N, Y32F, V54K, D57Y
VL: B1 VL with T27E
notes: scFv in periplasmic extract
B4: PcOxP_DB04_D07 (scFv, V domains shown)
VH: B1 VH with N53W, V54K
VL: B1 VL with T27E, S99T
notes: scFv in periplasmic extract
B5: PcOxP_DB04_E08 (scFv, V domains shown)
VH: B1 VH with F29S, Y32F, M34L, V54K, A55W
VL: B1 VL with T27E, A57V
notes: scFv in periplasmic extract
B6: PcOxP_DB04_F03 (scFv, V domains shown)
VH: B1 VH with F29A, Y32F, N53W, V54K, Y102I
VL: B1 VL with T27E
notes: scFv in periplasmic extract
B7: PcOxP_DB04_E12 (scFv, V domains shown)
VH: B1 VH with Y32F, V54K
VL: B1 VL with T27E, Y61V, S99I
notes: scFv in periplasmic extract
B8: PcOxP_DB04_G03 (scFv, V domains shown)
VH: B1 VH with F29T, Y32F, V54K, V112Y
VL: B1 VL with T27E, Y61N, Q96H
notes: scFv in periplasmic extract
B9: PcOxP_DB04_G09 (scFv, V domains shown)
VH: B1 VH with F27N, Y32F, V54K, A55W
VL: B1 VL with T27E
notes: scFv in periplasmic extract
B10: PcOxP_DB04_D12 (scFv, V domains shown)
VH: B1 VH with Y32Q, V54K, Y58W
VL: B1 VL with T27E
notes: scFv in periplasmic extract
B11: PcOxP_DB04_D10 (scFv, V domains shown)
VH: B1 VH with F29G, Y32F, N53W, V54K
VL: B1 VL with T27E, S32T, N59H, S99Q
notes: scFv in periplasmic extract
B12: PcOxP_DB04_E06 (scFv, V domains shown)
VH: B1 VH with F29G, Y32F, V54K, S106P
VL: B1 VL with T27E
notes: scFv in periplasmic extract
B13: PcOxP_DB04_D09 (scFv, V domains shown)
VH: B1 VH with F29D, Y32F, V54K
VL: B1 VL with T24K, A25S, T27E, H34N, I62S
notes: scFv in periplasmic extract
B14: PcOxP_DB04_F05 (scFv, V domains shown)
VH: B1 VH with V54K
VL: B1 VL with T27E, K33N, A57V
notes: scFv in periplasmic extract
B15: PcOxP_DB04_F01 (scFv, V domains shown)
VH: B1 VH with D31P, Y32F, V54K
VL: B1 VL with T27E, S99E
notes: scFv in periplasmic extract
B16: PcOxP_DB04_G01 (scFv, V domains shown)
VH: B1 VH with V54K, A55W, G104L
VL: B1 VL with T24K, T27Q, L29V, Y30L, H34N, K35N, H37N, S99Q
notes: scFv in periplasmic extract
B17: PcOxP_DB04_B06 (scFv, V domains shown)
VH: B1 VH with Y32A, V54K
VL: DIQMTQSPSSLSASVGDRVTITCTASESLYSSKHKVHYLAWYQQKPGKAPKLLIYGASNRYIGVPSRFSGSGSGTDFTLTISSLQPEDFATYYCAQFYDYPLTFGGGTKVEIK
notes: scFv in periplasmic extract
B18: PcOxP_DB03_H07 (scFv, V domains shown)
VH: B1 VH with V54K
VL: B17 VL with Y61D, A95G, D99S
notes: scFv in periplasmic extract
B19: PcOxP_DB03_G10 (scFv, V domains shown)
VH: B1 VH with Y32A, V54K
VL: B17 VL with Y61Q, D99T
notes: scFv in periplasmic extract
B20: PcOxP_DB04_A09 (scFv, V domains shown)
VH: B1 VH with V54K, A55W
VL: B17 VL with S26E, R60L, I62S, D99S
notes: scFv in periplasmic extract
B21: PcOxP_DB03_H08 (scFv, V domains shown)
VH: B1 VH with F27G, Y32F, V54K, D57T
VL: B17 VL with A57S, D99Q
notes: scFv in periplasmic extract
B22: PcOxP_DB04_A07 (scFv, V domains shown)
VH: B1 VH with F29Q, Y32F, V54K
VL: B17 VL with A57I, D99S
notes: scFv in periplasmic extract
B23: PcOxP_DB03_H09 (scFv, V domains shown)
VH: B1 VH with Y32A, V54K, D57S
VL: B17 VL with Q96E, D99S
notes: scFv in periplasmic extract
B24: PcOxP_DB04_A10 (scFv, V domains shown)
VH: B1 VH with F27D, Y32F, V54K, A55W
VL: B17 VL with Y61Q, D99S
notes: scFv in periplasmic extract

The target of one test is T1, Peptide 8: Biotin-AEAAAKEAAAKEAAAKEAAAKAAA-Tyr-acid (N-terminal biotin; C-terminal acid).
T1 construct: Control peptide without PC
T1 peptide: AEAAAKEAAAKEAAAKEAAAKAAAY
The test can be described thus: scFv ELISA. In short, it runs like this: (§1)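 Bound scFv was read as OD450 after HRP–anti-V5 detection, TMB development and HCl stop. PPE with BSA was incubated 1 h at RT on BSA-blocked wells coated overnight at 4° C. with peptide, or on streptavidin wells loaded 1 h with biotinylated PC-peptides at 1 μg/mL.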
With B1, the OD450 stood at 0.06 OD450.
Still for that read-out and setting: as for B2, the figure is 0.05 OD450; as for B3, 0.05 OD450.
As for B4, the OD450 came to 0.05 OD450.
Still for that read-out and setting: the value for B5 was 0.05 OD450.
On to B6, for which the OD450 was 0.05 OD450.
Same read-out and setting: the value for B7 was 0.05 OD450; that for B8 was 0.05 OD450; that for B9 was 0.06 OD450.
Still for that read-out and setting: the value for B10 was 0.05 OD450.
As for B11, the OD450 is 0.05 OD450.
The same measure, in the same setting: as for B12, the figure is 0.05 OD450; as for B13, 0.08 OD450; as for B14, 0.05 OD450.
On the same count and under the same terms, the value for B15 was 0.07 OD450; that for B16 was 0.09 OD450.

The target of the next test is T2, Peptide 8: Biotin-AEAAAKEAAAKEAAAKEAAAKAAA-Tyr-acid (N-terminal biotin; C-terminal acid; no PC).
T2 construct: control peptide without PC
T2 peptide: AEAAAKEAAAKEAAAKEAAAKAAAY
Put plainly: scFv ELISA. The method, boiled down:
as §1
In general terms: ELISA stands for enzyme-linked immunosorbent assay.
B17 came in with an OD450 of 0.06 OD450.
The same measure, in the same setting: the value for B18 was 0.05 OD450; that for B19 was 0.05 OD450; that for B20 was 0.06 OD450.
B21 returned an OD450 of 0.06 OD450.
On the same count and under the same terms, the value for B22 was 0.05 OD450.
Same read-out and setting: as for B23, the figure is 0.06 OD450.
The same measure, in the same setting: the value for B24 was 0.06 OD450.

Another test has as its target T3, Peptide 4: Biotin-AGGGGSGGGGSGGGGSAAA-Tyr-acid (N-terminal biotin; C-terminal acid).
T3 construct: Control peptide without PC
T3 peptide: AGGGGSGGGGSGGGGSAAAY
Put plainly: scFv ELISA. The method, boiled down:
as §1
For B1, the OD450 turned out to be 0.05 OD450.
The same measure, in the same setting: as for B2, the figure is 0.05 OD450; as for B3, 0.06 OD450.
Same read-out and setting: the value for B4 was 0.05 OD450; that for B5 was 0.06 OD450.
Molecule B6 showed an OD450 of 0.06 OD450.
Same read-out and setting: as for B7, the figure is 0.05 OD450; as for B8, 0.04 OD450; as for B9, 0.05 OD450.
The same measure, in the same setting: as for B10, the figure is 0.06 OD450; as for B11, 0.05 OD450.
On the same count and under the same terms, the value for B12 was 0.04 OD450; that for B13 was 0.05 OD450.
Consider B14, for which the OD450 came to 0.06 OD450.
Same read-out and setting: as for B15, the figure is 0.07 OD450; as for B16, 0.07 OD450.

The next test deals with T4, Peptide 4: Biotin-AGGGGSGGGGSGGGGSAAA-Tyr-acid (N-terminal biotin; C-terminal acid; no PC).
T4 construct: control peptide without PC
T4 peptide: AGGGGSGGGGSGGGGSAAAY
The test can be described thus: scFv ELISA. The method, boiled down: as §1
In turn, B17 had an OD450 of 0.06 OD450.
Still for that read-out and setting: as for B18, the figure is 0.05 OD450; as for B19, 0.05 OD450.
The same measure, in the same setting: as for B20, the figure is 0.06 OD450.
On the same count and under the same terms, the value for B21 was 0.06 OD450; that for B22 was 0.05 OD450; that for B23 was 0.06 OD450.
B24 returned an OD450 of 0.06 OD450.

For a further test, the target named is Peptide 5: Biotin-…-[Tyr(PC)]-acid. Put plainly: scFv ELISA.
For B1, the OD450 was 1.27 OD450.
The same measure, in the same setting: as for B17, the figure is 1.06 OD450.
Same read-out and setting: the value for B18 was 1.64 OD450.
On the same count and under the same terms, the value for B2 was 1.67 OD450; that for B3 was 1.03 OD450.
Turning to B4, the OD450 was 1.05 OD450.
For the molecule B5, the OD450 came out at 2.01 OD450.
Same read-out and setting: the value for B6 was 0.87 OD450; that for B7 was 1.39 OD450; that for B19 was 1.21 OD450.
B20 came in with an OD450 of 1.96 OD450.
On the same count and under the same terms, as for B8, the figure is 0.4 OD450; as for B21, 1.18 OD450; as for B9, 1.08 OD450.
Still for that read-out and setting: as for B10, the figure is 1.03 OD450.
Still for that read-out and setting: as for B22, the figure is 2.11 OD450; as for B23, 1.25 OD450; as for B24, 1.61 OD450.
For the molecule B11, the OD450 is 1.35 OD450.
Turning to B12, the OD450 came to 1.59 OD450.
The same measure, in the same setting: as for B13, the figure is 0.83 OD450; as for B14, 0.97 OD450; as for B15, 0.85 OD450.
The same measure, in the same setting: as for B16, the figure is 1.39 OD450.

The target in a further test is BSA (UniProt P02769). Put plainly: scFv ELISA.
Sequence of BSA (P02769 25-607 limits assumed): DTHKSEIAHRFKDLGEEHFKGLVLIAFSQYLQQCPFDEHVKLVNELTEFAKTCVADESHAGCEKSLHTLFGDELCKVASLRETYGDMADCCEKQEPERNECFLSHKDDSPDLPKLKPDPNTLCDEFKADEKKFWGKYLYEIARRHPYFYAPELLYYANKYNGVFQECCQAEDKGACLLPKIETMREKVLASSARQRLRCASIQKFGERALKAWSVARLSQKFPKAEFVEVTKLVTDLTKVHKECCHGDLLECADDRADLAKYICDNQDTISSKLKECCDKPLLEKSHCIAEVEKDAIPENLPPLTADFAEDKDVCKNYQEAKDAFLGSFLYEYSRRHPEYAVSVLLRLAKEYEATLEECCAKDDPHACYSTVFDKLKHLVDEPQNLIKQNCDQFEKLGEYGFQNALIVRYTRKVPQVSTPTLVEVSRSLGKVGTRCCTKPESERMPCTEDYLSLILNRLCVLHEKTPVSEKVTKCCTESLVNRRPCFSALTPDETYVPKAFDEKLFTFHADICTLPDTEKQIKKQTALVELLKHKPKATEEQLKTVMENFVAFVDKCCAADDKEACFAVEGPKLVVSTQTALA
B1 displayed an OD450 of 0.08 OD450.
The same measure, in the same setting: as for B17, the figure is 0.1 OD450.
The same measure, in the same setting: as for B18, the figure is 0.08 OD450.
Same read-out and setting: as for B2, the figure is 0.07 OD450.
With B3, the OD450 amounted to 0.09 OD450.
Still for that read-out and setting: as for B4, the figure is 0.08 OD450; as for B5, 0.09 OD450.
Still for that read-out and setting: the value for B6 was 0.1 OD450; that for B7 was 0.07 OD450; that for B19 was 0.11 OD450.
The same measure, in the same setting: the value for B20 was 0.12 OD450; that for B8 was 0.07 OD450; that for B21 was 0.12 OD450.
As to B9, the OD450 was found to be 0.08 OD450.
Molecule B10 displayed an OD450 of 0.08 OD450.
The same measure, in the same setting: the value for B22 was 0.09 OD450; that for B23 was 0.11 OD450.
Same read-out and setting: the value for B24 was 0.11 OD450; that for B11 was 0.07 OD450; that for B12 was 0.07 OD450.
The molecule B13 yielded an OD450 of 0.06 OD450.
On the same count and under the same terms, the value for B14 was 0.07 OD450; that for B15 was 0.09 OD450; that for B16 was 0.09 OD450.

A further test deals with Peptide 1: Biotin-…-[Tyr(PC)]-acid. Put plainly: scFv ELISA.
As to B1, the OD450 was 0.87 OD450.
As for B17, the OD450 was found to be 0.66 OD450.
The same measure, in the same setting: as for B18, the figure is 1.91 OD450.
Same read-out and setting: the value for B2 was 1.39 OD450.
Same read-out and setting: the value for B3 was 0.67 OD450; that for B4 was 1.02 OD450.
As to B5, the OD450 amounted to 1.39 OD450.
The molecule B6 yielded an OD450 of 0.58 OD450.
Same read-out and setting: as for B7, the figure is 1.03 OD450; as for B19, 1.8 OD450.
The same measure, in the same setting: the value for B20 was 1.16 OD450; that for B8 was 0.19 OD450; that for B21 was 0.91 OD450.
The same measure, in the same setting: the value for B9 was 0.48 OD450.
As for B10, the OD450 worked out at 0.64 OD450.
B22 registered an OD450 of 1.54 OD450.
Same read-out and setting: as for B23, the figure is 0.93 OD450.
Still for that read-out and setting: the value for B24 was 0.74 OD450; that for B11 was 1.14 OD450; that for B12 was 1.04 OD450.
On the same count and under the same terms, as for B13, the figure is 0.41 OD450; as for B14, 0.76 OD450.
For B15, the OD450 amounted to 0.56 OD450.
For B16, the OD450 amounted to 0.63 OD450.
